Results published in patent US20200040092A1 (YISSUM RESEARCH DEVELOPMENT COMPANY OF THE HEBREW …, published 2020).

Assays:
[1] = target: T1, hNectin-2 on cells (CHO cells expressing hNectin-2); RPMI-8866 cells overexpressing hNectin-2; human tumor … (human, UniProt Q92692 32-538); experiment: FACS on the CHO cells expressing hNectin-2 of FIG. 7C
T1 construct: whole, on cells
T1 sequence (looked up): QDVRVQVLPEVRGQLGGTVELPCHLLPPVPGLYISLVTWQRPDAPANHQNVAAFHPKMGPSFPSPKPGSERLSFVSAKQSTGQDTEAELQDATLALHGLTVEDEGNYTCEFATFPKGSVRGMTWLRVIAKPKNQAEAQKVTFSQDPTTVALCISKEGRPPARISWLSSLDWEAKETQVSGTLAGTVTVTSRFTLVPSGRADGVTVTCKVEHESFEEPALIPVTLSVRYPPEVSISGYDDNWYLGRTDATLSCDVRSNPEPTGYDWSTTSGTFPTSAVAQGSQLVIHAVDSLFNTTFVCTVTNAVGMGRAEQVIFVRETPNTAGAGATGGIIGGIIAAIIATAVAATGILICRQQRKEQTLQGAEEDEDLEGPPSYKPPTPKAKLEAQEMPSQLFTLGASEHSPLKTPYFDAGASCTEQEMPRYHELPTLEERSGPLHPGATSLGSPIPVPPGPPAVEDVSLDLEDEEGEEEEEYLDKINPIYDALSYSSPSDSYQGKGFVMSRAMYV

[2] = target: T2, human PVR on cells (endogenous on HepG2 and other human tumor cell lines; full-length hPVR overexpressed in B16 cells) (human), P15151; experiment: FACS on B16-hPVR cells, anti-human-IgG APC detection; conditions: remark: other sources report otherwise
T2 chain: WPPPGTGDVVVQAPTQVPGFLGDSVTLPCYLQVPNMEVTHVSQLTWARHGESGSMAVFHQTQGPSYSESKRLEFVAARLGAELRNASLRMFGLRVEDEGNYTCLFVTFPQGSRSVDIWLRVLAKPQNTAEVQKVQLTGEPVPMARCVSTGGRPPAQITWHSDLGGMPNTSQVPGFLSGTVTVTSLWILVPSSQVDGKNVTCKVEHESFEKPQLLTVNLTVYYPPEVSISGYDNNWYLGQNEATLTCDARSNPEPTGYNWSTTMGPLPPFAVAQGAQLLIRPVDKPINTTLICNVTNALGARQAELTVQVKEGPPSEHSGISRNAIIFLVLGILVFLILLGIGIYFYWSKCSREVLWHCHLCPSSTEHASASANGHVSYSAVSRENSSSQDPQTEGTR

[3] = target: T3, human PVR on cells (endogenous on HepG2 and other human tumor cell lines); full-length hPVR overexpressed in … (human, UniProt P15151 21-417); experiment: cell-based or functional assay
T3 sequence (looked up): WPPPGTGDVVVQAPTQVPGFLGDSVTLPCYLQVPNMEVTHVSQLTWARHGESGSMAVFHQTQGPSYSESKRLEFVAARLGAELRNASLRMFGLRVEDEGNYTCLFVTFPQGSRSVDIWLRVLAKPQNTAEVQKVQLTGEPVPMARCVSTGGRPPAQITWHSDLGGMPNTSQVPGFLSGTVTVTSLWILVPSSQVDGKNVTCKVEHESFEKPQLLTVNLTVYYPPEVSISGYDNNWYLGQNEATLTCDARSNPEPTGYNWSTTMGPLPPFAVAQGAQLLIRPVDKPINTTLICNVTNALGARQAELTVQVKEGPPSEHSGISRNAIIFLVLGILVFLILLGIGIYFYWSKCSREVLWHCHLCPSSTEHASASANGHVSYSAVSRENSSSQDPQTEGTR

[4] = target: T3, human PVR on cells (endogenous on HepG2 …); experiment: cell-based or functional assay; remark: listed apart in the source

B1: anti-PVR monoclonal antibody 4E5 (antibody, mouse IgG1, V domains shown)
VH: EVKLLESGGGLVQPGGSLKLSCAASGFDFSRYWMTWVRQAPGKGLEWIGEIHPDSSKINYTPSQKDKFIISRDNAKNTLFLQMSKVRFEDTALYFCARPDGNYNALDYWGQGTSVTVSS
VL: DIVMTQSHKFMSTSVGDRVSITCKASQDVGTAVTWYQQKPGQSPKLLIYWASTRHTGVPDRFTGSESGTDFTLTISDVQSEDLANYFCQQYSRYPYTFGGGTKLEIK
notes: also called hPVR.07; PVR.07
[1]
  binding result: no binding

B2: Human TIGIT-Fc, Q495A1 22-141 (Fc fusion, UniProt Q495A1 22-141, looked up, not shown: a dimerising Fc or GST)
chain: MMTGTIETTGNISAEKGGSIILQCHLSSTTAQVTQVNWEQQDQLLAICNADLGWHISPSFKDRVAPGPGLGLTLQSLTVNDTGEYFCIYHTYPDGTYTGRIFLEVLESSVAEHGARFQIP
[2]
  fold signal against DNAM-1-Fc: 2 to 4 fold

B3: anti-PVR monoclonal antibody 7D4 (antibody, mouse IgG1, V domains shown)
VH: EVQLQQSGPELVKPGASVKISCKTSGYTFTEYTMHWVKQSHGESLEWIGGIDPNNGGTNYNQNFKGKATLTVDKSSSTAYMELRSLTSEDSAVYYCAGVIPLEYWGQGTSVTVSS
VL: DIVMTQSQKFMSTSVGDRVSVTCKASQNVYTNVAWYQQKPGQSPKALIYSASYRYRGVPDRFTGSGSGTDFTLTISNVQSEDLADYFCQQYNSYPLAFGSGTKLEIK
notes: also called hPVR.01; PVR.01
[3]
  NK cell killing of the human breast adenocarcinoma cell line MDA-MB-231 ([35S]-Methionine release, specific killing): 2 fold
[1]
  binding result: no binding

B4: anti-PVR monoclonal antibody 5B9 (antibody, mouse IgG1, V domains shown)
VH: QVQLQQSGAELMKPGASVKISCKATGYTFSNYWIEWIKQRPGHGLEWIGEIFPGSGRINFNEKFKGKATFTADTSSDTTYMQLSSLTSADSAVYYCARTKIYGNSFDYWGQGTTLTVSP
VL: DIMMTQSHKFMSTSVGDRVNITCKASQDVGTAVVWYQQKPGQSPKLLIYWASSRHNGVPDRFTGSGSGTDFTLTISNVQSEDLSDYFCQQYSRYPLTFGAGTKLELK
notes: also called hPVR.09; PVR.09
[1]
  binding result: no binding
[4]
  Percentage of dead cells within 24 hrs relative to mIgG treated cells (MTT), A549: 25%
  Percentage of dead cells within 24 hrs relative to mIgG treated cells (MTT), HCT-116: 22%
  Percentage of dead cells within 24 hrs relative to mIgG treated cells (MTT), MDA-MB-231: 20%
  Percentage of dead cells within 24 hrs relative to mIgG treated cells (MTT), Mel-624: 32%
